Measurements from US5858678.

Columns and labels:
[1] = biological target: 19K mutant 123-4 (substitutions for residues 123-124) bait (GAL4(1-147)-19 kD fusion) (yeast; adenovirus) (UniProt P04386); assay: yeast two-hybrid, ONPG beta-galactosidase assay
[2] = biological target: 19K mutant 14-5 bait (GAL4(1-147)-19 kD fusion) (yeast; adenovirus) (UniProt P04386); assay: yeast two-hybrid, ONPG beta-galactosidase assay
[3] = biological target: 19K mutant 146-E bait (GAL4(1-147)-19 kD fusion) (yeast; adenovirus) (UniProt P04386); assay: yeast two-hybrid, ONPG beta-galactosidase assay
[4] = biological target: 19K mutant 29-0 bait (GAL4(1-147)-19 kD fusion) (yeast; adenovirus) (UniProt P04386); assay: yeast two-hybrid, ONPG beta-galactosidase assay
[5] = biological target: 19K mutant 50-1 (amino acids 50-51) bait (GAL4(1-147)-19 kD fusion) (yeast; adenovirus) (UniProt P04386); assay: yeast two-hybrid, ONPG beta-galactosidase assay
[6] = biological target: 19K mutant 75-6 (substitution for residues 75-76) bait (GAL4(1-147)-19 kD fusion) (yeast; adenovirus) (UniProt P04386); assay: yeast two-hybrid, ONPG beta-galactosidase assay
[7] = biological target: 19K mutant 90-6 (amino acids 90-96) bait (GAL4(1-147)-19 kD fusion) (yeast; adenovirus) (UniProt P04386); assay: yeast two-hybrid, ONPG beta-galactosidase assay
[8] = biological target: Bcl-2 deletion mutant #106-5 (lacks residues 106 to 115) bait in pMA424 (yeast; human); assay: yeast two-hybrid, ONPG beta-galactosidase assay
[9] = biological target: Bcl-2 deletion mutant #42-8 (lacks residues 42 to 48) bait in pMA424 (yeast; human); assay: yeast two-hybrid, ONPG beta-galactosidase assay
[10] = biological target: Bcl-2 deletion mutant #80-6 (lacks residues 80 to 86) bait in pMA424 (yeast; human); assay: yeast two-hybrid, ONPG beta-galactosidase assay
[11] = biological target: GAL4(1-147)-19K fusion protein (adenovirus E1B 19 kD protein bait, wild type) (yeast; adenovirus) (UniProt P04386); assay: yeast two-hybrid, ONPG beta-galactosidase assay
[12] = biological target: human Bcl-2 bait (pMA424-based GAL4 DNA-binding domain fusion, residues 1-239 of Bcl2), wild type (yeast; human); assay: yeast two-hybrid, ONPG beta-galactosidase assay
[13] = biological target: GAL4(1-147)-19K fusion protein (adenovirus E1B 19 kD protein bait, wild type) (yeast; adenovirus) (UniProt P04386); assay: yeast two-hybrid, ONPG beta-galactosidase assay, relative to the 19K bait
[14] = biological target: human Bcl-2 bait (pMA424-based GAL4 DNA-binding domain fusion, residues 1-239 of Bcl2), wild type (yeast; human); assay: as above

Sequence of Nip3 (19K-interacting protein 3), protein coded by cDNA clone 91, tagged with the GAL4 activation domain (chain): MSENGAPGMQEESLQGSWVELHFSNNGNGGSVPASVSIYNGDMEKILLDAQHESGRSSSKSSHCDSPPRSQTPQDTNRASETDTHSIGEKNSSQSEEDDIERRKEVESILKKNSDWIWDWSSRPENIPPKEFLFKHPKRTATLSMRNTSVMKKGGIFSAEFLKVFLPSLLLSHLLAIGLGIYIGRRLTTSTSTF
Sequence of Nip1 (19K-interacting protein 1), protein coded by cDNA clone 22, tagged with the GAL4 activation domain (chain): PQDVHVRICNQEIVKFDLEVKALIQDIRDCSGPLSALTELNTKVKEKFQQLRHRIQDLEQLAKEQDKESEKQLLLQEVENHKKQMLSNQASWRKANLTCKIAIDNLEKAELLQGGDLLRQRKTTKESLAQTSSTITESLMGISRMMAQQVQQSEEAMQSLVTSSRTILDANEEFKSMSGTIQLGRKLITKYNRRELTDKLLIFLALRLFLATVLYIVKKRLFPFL
Sequence of Nip2 (19K-interacting protein 2), protein coded by cDNA clone 44, tagged with the GAL4 activation domain (chain): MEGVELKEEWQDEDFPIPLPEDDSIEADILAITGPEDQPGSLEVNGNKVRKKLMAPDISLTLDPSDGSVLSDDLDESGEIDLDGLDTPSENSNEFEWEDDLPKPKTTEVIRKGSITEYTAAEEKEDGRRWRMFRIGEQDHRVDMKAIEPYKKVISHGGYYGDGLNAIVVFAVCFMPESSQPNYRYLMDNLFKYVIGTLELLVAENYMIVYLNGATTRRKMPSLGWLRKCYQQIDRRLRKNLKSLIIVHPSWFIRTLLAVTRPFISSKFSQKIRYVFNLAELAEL

Row | Substance | relative level of lacZ expression (ONPG) (relative level) [1] | relative level of lacZ expression (ONPG) (relative level) [2] | relative level of lacZ expression (ONPG) (relative level) [3] | relative level of lacZ expression (ONPG) (relative level) [4] | relative level of lacZ expression (ONPG) (relative level) [5] | relative level of lacZ expression (ONPG) (relative level) [6] | relative level of lacZ expression (ONPG) (relative level) [7] | relative level of lacZ expression (ONPG) (relative level) [8] | relative level of lacZ expression (ONPG) (relative level) [9] | relative level of lacZ expression (ONPG) (relative level) [10] | relative level of lacZ expression (ONPG) (relative level) [11] | relative level of lacZ expression (ONPG) (relative level) [12] | relative level of lacZ expression (ONPG) (relative level) [13] | relative level of lacZ expression (ONPG) (relative level) [14]
1 | Nip1 (19K-interacting protein 1), protein coded by cDNA clone 22, tagged with the GAL4 activation domain | 0.05 | 0.61 | 0.87 | 0.33 | < 0.01 | 1.72 | < 0.01 | 0.01 | 0.16 | 1.21 | 1 | 1 | 1 | 1.8
2 | Nip3 (19K-interacting protein 3), protein coded by cDNA clone 91, tagged with the GAL4 activation domain | 0.1 | 0.16 | 0.28 | 0.19 | 0.01 | 0.22 | 0.01 | 0.11 | 0.19 | 2.87 | 1 | 1 | 1 | 1.5
3 | Nip2 (19K-interacting protein 2), protein coded by cDNA clone 44, tagged with the GAL4 activation domain | 0.24 | 0.55 | 0.98 | 0.32 | 0.09 | 1.6 | 0.04 | 0.06 | 0.09 | 0.8 | 1 | 1 | 1 | 0.7
